One protein from ChEMBL document CHEMBL2073804, “Transport of the beta -O-glucuronide conjugate of the tobacco-specific carcinogen 4-(methylnitrosamino)-1-(3-pyridyl)-1-butanol (NNAL) by the multidrug resistance protein 1 (MRP1). Requirement for glutathione or a non-sulfur-containing analog” (J Biol Chem, 2001) can be followed below.

Substrate in this data set: CN(CCCC(C[C@@H]1O[C@H](C(=O)O)[C@@H](O)[C@H](O)[C@H]1O)c1cccnc1)N=O
Description: TP_TRANSPORTER: uptake, in the presence of GSH in membrane vesicle from MRP1-expressing T5 HeLa cell. The data set is classed as functional, cell membranes.

B1: Multidrug resistance-associated protein 1 (Homo sapiens) (protein)
chain: MALRGFCSADGSDPLWDWNVTWNTSNPDFTKCFQNTVLVWVPCFYLWACFPFYFLYLSRHDRGYIQMTPLNKTKTALGFLLWIVCWADLFYSFWERSRGIFLAPVFLVSPTLLGITMLLATFLIQLERRKGVQSSGIMLTFWLVALVCALAILRSKIMTALKEDAQVDLFRDITFYVYFSLLLIQLVLSCFSDRSPLFSETIHDPNPCPESSASFLSRITFWWITGLIVRGYRQPLEGSDLWSLNKEDTSEQVVPVLVKNWKKECAKTRKQPVKVVYSSKDPAQPKESSKVDANEEVEALIVKSPQKEWNPSLFKVLYKTFGPYFLMSFFFKAIHDLMMFSGPQILKLLIKFVNDTKAPDWQGYFYTVLLFVTACLQTLVLHQYFHICFVSGMRIKTAVIGAVYRKALVITNSARKSSTVGEIVNLMSVDAQRFMDLATYINMIWSAPLQVILALYLLWLNLGPSVLAGVAVMVLMVPVNAVMAMKTKTYQVAHMKSKDNRIKLMNEILNGIKVLKLYAWELAFKDKVLAIRQEELKVLKKSAYLSAVGTFTWVCTPFLVALCTFAVYVTIDENNILDAQTAFVSLALFNILRFPLNILPMVISSIVQASVSLKRLRIFLSHEELEPDSIERRPVKDGGGTNSITVRNATFTWARSDPPTLNGITFSIPEGALVAVVGQVGCGKSSLLSALLAEMDKVEGHVAIKGSVAYVPQQAWIQNDSLRENILFGCQLEEPYYRSVIQACALLPDLEILPSGDRTEIGEKGVNLSGGQKQRVSLARAVYSNADIYLFDDPLSAVDAHVGKHIFENVIGPKGMLKNKTRILVTHSMSYLPQVDVIIVMSGGKISEMGSYQELLARDGAFAEFLRTYASTEQEQDAEENGVTGVSGPGKEAKQMENGMLVTDSAGKQLQRQLSSSSSYSGDISRHHNSTAELQKAEAKKEETWKLMEADKAQTGQVKLSVYWDYMKAIGLFISFLSIFLFMCNHVSALASNYWLSLWTDDPIVNGTQEHTKVRLSVYGALGISQGIAVFGYSMAVSIGGILASRCLHVDLLHSILRSPMSFFERTPSGNLVNRFSKELDTVDSMIPEVIKMFMGSLFNVIGACIVILLATPIAAIIIPPLGLIYFFVQRFYVASSRQLKRLESVSRSPVYSHFNETLLGVSVIRAFEEQERFIHQSDLKVDENQKAYYPSIVANRWLAVRLECVGNCIVLFAALFAVISRHSLSAGLVGLSVSYSLQVTTYLNWLVRMSSEMETNIVAVERLKEYSETEKEAPWQIQETAPPSSWPQVGRVEFRNYCLRYREDLDFVLRHINVTINGGEKVGIVGRTGAGKSSLTLGLFRINESAEGEIIIDGINIAKIGLHDLRFKITIIPQDPVLFSGSLRMNLDPFSQYSDEEVWTSLELAHLKDFVSALPDKLDHECAEGGENLSVGQRQLVCLARALLRKTKILVLDEATAAVDLETDDLIQSTIRTQFEDCTVLTIAHRLNTIMDYTRVIVLDKGEIQEYGAPSDLLQQRGLFYSMAKDAGLV
A word on the Km: it is the substrate concentration at which the rate is half of its maximum. As for B1, the Michaelis constant (Km) is 39 µM.
